Patent US20140228277A1 (Genentech, published 2014)
Positions of bridges follow the written chain, without caps; N, C: chain ends. No end group written: not given here.

B1: SEQ ID NO 89 (peptide)
chain: KEESLYCRLLGLGCG
modifications: not fully specified (C-terminus, bridges); cysteine pairing not given here
notes: not shown: M13 major coat protein; peptide fused to its N-terminus
B2: SEQ ID NO 90 (peptide)
chain: TEESIYCRLLGLGCD
notes: as for B1
B3: SEQ ID NO 70 (peptide)
chain: NEESIYCRLLGLGCG
modifications: not fully specified (C-terminus, bridges); cysteine pairing not given here
notes: as for B1
B4: SEQ ID NO 72 (peptide)
chain: NEESIYCRLLGLACG
modifications: not fully specified (C-terminus, bridges); cysteine pairing not given here
notes: as for B1
B5: SEQ ID NO 74 (peptide)
chain: VEESIYCRLLGLGCG
notes: as for B1
B6: SEQ ID NO 83 (peptide)
chain: YEESIYCRLLGIGCG
modifications: not fully specified (C-terminus, bridges); cysteine pairing not given here
notes: as for B1
B7: SEQ ID NO 87 (peptide)
chain: YEESIYCRLLGLGCG
modifications: not fully specified (C-terminus, bridges); cysteine pairing not given here
notes: as for B1
B8: SEQ ID NO 91 (peptide)
chain: AEESIYCRLLGLGCG
modifications: not fully specified (C-terminus, bridges); cysteine pairing not given here
notes: as for B1
B9: SEQ ID NO 92 (peptide)
chain: NEVSLYCRLLDLGCG
modifications: not fully specified (C-terminus, bridges); cysteine pairing not given here
notes: as for B1
B10: SEQ ID NO 93 (peptide)
chain: NPENNYCRLLNLGCG
notes: as for B1
B11: SEQ ID NO 94 (peptide)
chain: NDEHMYCRLLGLDCN
modifications: not fully specified (C-terminus, bridges); cysteine pairing not given here
notes: as for B1
B12: SEQ ID NO 95 (peptide)
chain: NDENMYCRLLGLGCA
modifications: not fully specified (C-terminus, bridges); cysteine pairing not given here
notes: as for B1
B13: SEQ ID NO 69 (peptide)
chain: NMESVHCRLLGLGCG
notes: as for B1
B14: SEQ ID NO 71 (peptide)
chain: KEENIYCRLLSLGCS
notes: as for B1
B15: SEQ ID NO 73 (peptide)
chain: KEDSMYCRLLGLGCG
modifications: not fully specified (C-terminus, bridges); cysteine pairing not given here
notes: as for B1
B16: SEQ ID NO 75 (peptide)
chain: IEESIYCRLLGFGCG
notes: as for B1
B17: SEQ ID NO 76 (peptide)
chain: NGDNMYCRLLGLGCE
modifications: not fully specified (C-terminus, bridges); cysteine pairing not given here
notes: as for B1
B18: SEQ ID NO 77 (peptide)
chain: DVESVYCRLLGLGCG
modifications: not fully specified (C-terminus, bridges); cysteine pairing not given here
notes: as for B1
B19: SEQ ID NO 78 (peptide)
chain: NDESVYCRLLGIGCG
notes: as for B1
B20: SEQ ID NO 79 (peptide)
chain: TEESLYCRLLGVGCG
modifications: not fully specified (C-terminus, bridges); cysteine pairing not given here
notes: as for B1
B21: SEQ ID NO 80 (peptide)
chain: KEESIHCRLLGLGCG
notes: as for B1
B22: SEQ ID NO 81 (peptide)
chain: NVEHIHCRLLGLGCG
modifications: not fully specified (C-terminus, bridges); cysteine pairing not given here
notes: as for B1
B23: SEQ ID NO 82 (peptide)
chain: NDDSLYCRLLGLGCG
modifications: not fully specified (C-terminus, bridges); cysteine pairing not given here
notes: as for B1
B24: SEQ ID NO 84 (peptide)
chain: TDESIYCRLLSIACG
modifications: not fully specified (C-terminus, bridges); cysteine pairing not given here
notes: as for B1
B25: SEQ ID NO 85 (peptide)
chain: KEESIYCRLLGHGCG
modifications: not fully specified (C-terminus, bridges); cysteine pairing not given here
notes: as for B1
B26: SEQ ID NO 86 (peptide)
chain: NEENMYCRLMGIGCG
modifications: not fully specified (C-terminus, bridges); cysteine pairing not given here
notes: as for B1
B27: SEQ ID NO 88 (peptide)
chain: HEDHLYCRLLGIGCG
modifications: not fully specified (C-terminus, bridges); cysteine pairing not given here
notes: as for B1
B28: BMS1 (peptide)
peptide: Ac-NLTTYPYFIPLP-NH2
notes: also called Peptide 1 of Kornacker et al
B29: BACE029 (peptide)
peptide: Ac-EESMYCRLLGIGCG-NH2
modifications: disulfide 6-13 (inferred)
notes: N-terminal truncation of BACE020
B30: BACE030 (peptide)
peptide: Ac-ESMYCRLLGIGCG-NH2
modifications: disulfide 5-12
SMILES: CC[C@H](C)[C@@H]1NC(=O)CNC(=O)[C@H](CC(C)C)NC(=O)[C@H](CC(C)C)NC(=O)[C@H](CCCNC(=N)N)NC(=O)[C@@H](NC(=O)[C@H](Cc2ccc(O)cc2)NC(=O)[C@H](CCSC)NC(=O)[C@H](CO)NC(=O)[C@H](CCC(=O)O)NC(C)=O)CSSC[C@@H](C(=O)NCC(N)=O)NC(=O)CNC1=O
notes: Minimal version of BACE020 with full activity
B31: BACE058 (peptide)
peptide: Ac-ESMYCKLLGIGCG-NH2
modifications: disulfide 5-12 (inferred)
notes: also called BACE030 with Arg to lysine
B32: BACE031 (peptide)
peptide: Ac-SMYCRLLGIGCG-NH2
modifications: disulfide 4-11 (inferred)
notes: also called BACE31
B33: BACE042 (peptide)
peptide: Ac-AEESMYCRLLGIGCG-NH2
modifications: disulfide 7-14 (inferred)
notes: also called BACE020 position 1 to Ala
B34: BACE043 (peptide)
peptide: Ac-NAESMYCRLLGIGCG-NH2
modifications: disulfide 7-14 (inferred)
notes: also called BACE020 Glu2 to Ala
B35: BACE044 (peptide)
peptide: Ac-NEASMYCRLLGIGCG-NH2
modifications: disulfide 7-14 (inferred)
notes: also called BACE020 Glu3 to Ala
B36: BACE045 (peptide)
peptide: Ac-NEEAMYCRLLGIGCG-NH2
modifications: disulfide 7-14 (inferred)
notes: also called BACE020 Ser4 to Ala
B37: BACE057 (peptide)
peptide: Ac-ESMYCALLGIGCG-NH2
modifications: disulfide 5-12 (inferred)
B38: BACE032 (peptide)
peptide: Ac-MYCRLLGIGCG-NH2
modifications: disulfide 3-10 (inferred)
B39: BACE033 (peptide)
peptide: Ac-YCRLLGIGCG-NH2
modifications: disulfide 2-9 (inferred)

Biological target: T1, recombinant human BACE1 (rhBACE1) (human, UniProt P56817 22-457, limits assumed)
T1 sequence (P56817 22-457 limits assumed): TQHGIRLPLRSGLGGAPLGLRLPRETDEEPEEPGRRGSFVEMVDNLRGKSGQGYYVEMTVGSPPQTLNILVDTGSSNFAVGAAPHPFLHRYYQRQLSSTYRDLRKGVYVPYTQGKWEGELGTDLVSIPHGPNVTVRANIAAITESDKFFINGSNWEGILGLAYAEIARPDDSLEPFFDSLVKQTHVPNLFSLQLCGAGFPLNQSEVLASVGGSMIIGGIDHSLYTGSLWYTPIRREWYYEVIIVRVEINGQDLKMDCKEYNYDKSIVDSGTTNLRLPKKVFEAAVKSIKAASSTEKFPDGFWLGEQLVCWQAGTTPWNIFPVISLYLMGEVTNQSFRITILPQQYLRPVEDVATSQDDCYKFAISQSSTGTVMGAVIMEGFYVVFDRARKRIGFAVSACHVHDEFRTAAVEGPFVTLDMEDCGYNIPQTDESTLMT
Assay: spot phage ELISA, plate-immobilized BACE1 against BSA

| Binder | fold improvement of signal/noise ratio over parent BACE017 |
| --- | --- |
| B1 | > 5 fold |
| B2 | > 5 fold |
| B3 | > 5 fold |
| B4 | > 5 fold |
| B5 | > 5 fold |
| B6 | > 5 fold |
| B7 | > 5 fold |
| B8 | > 5 fold |
| B9 | > 5 fold |
| B10 | > 5 fold |
| B11 | > 5 fold |
| B12 | > 5 fold |
| B13 | > 5 fold |
| B14 | > 5 fold |
| B15 | > 5 fold |
| B16 | > 5 fold |
| B17 | > 5 fold |
| B18 | > 5 fold |
| B19 | > 5 fold |
| B20 | > 5 fold |
| B21 | > 5 fold |
| B22 | > 5 fold |
| B23 | > 5 fold |
| B24 | > 5 fold |
| B25 | > 5 fold |
| B26 | > 5 fold |
| B27 | > 5 fold |

Biological target: T1, recombinant human BACE1 (rhBACE1)
Assay: FP competition binding; 12 nM rhBACE1, competitor probe 5-TAMRA-BACE020
Experimental: BACE1 binding assays were carried out in a final volume of 10 μL per well in black 384-well microplates (Proxiplate-Plus; Perkin Elmer, Waltham, Mass.). […] The reaction was permitted to proceed towards equilibrium for 2 h at ambient temperature prior to fluorescence polarization measurement using Envision (Perkin Elmer). The parallel and perpendicular fluorescent emissions measured in each well at 595 nm (excitation 531 nm polarized light) were used to determine the milli-polarization level (mP) using the following formula: mP=1000*(S−G*P)/(S+G*P) where S=parallel emission, P=perpendicular emission and G=0.65.
The affinities of BACE1 peptide ligands were measured using the abovementioned competition binding FP assay for determining IC₅₀ values with serially diluted peptides. A Caliper assay was used to measure the inhibition of BACE1 enzymatic activity by peptide ligands.

| Binder | IC50 |
| --- | --- |
| B28 | > 10000 nM |
| B29 | 12 nM |
| B30 | 23 nM |
| B31 | 486 nM |
| B32 | 2600 nM |
| B33 | 31 nM |
| B34 | 41 nM |
| B35 | 131 nM |
| B36 | 2340 nM |

Biological target: T1, recombinant human BACE1 (rhBACE1)
Assay: cell-based or functional assay

| Binder | Caliper (MCE) BACE1 activity assay, EC50 (rate increased) | Caliper (MCE) BACE1 activity assay IC50 |
| --- | --- | --- |
| B28 | 0.227 µM |  |
| B29 |  | 0.013 µM |
| B30 |  | 0.018 µM |
| B37 |  | > 10 µM |
| B31 |  | 0.074 µM |
| B32 |  | 1.28 µM |
| B38 |  | 8.09 µM |
| B39 |  | 10.9 µM |
| B33 |  | 0.012 µM |
| B34 |  | 0.013 µM |
| B35 |  | 0.046 µM |
| B36 |  | 0.304 µM |
